This note sets out measurements from patent publication US20220003777A1 (Stanford University, published 2022).

The target of the assay is T1, Secreted Protease of C1 Esterase Inhibitor (StcE), recombinant N-terminal His-tagged (Escherichia coli O157:H7, UniProt O82882 36-898).
T1 construct: also called mucinase
T1 sequence: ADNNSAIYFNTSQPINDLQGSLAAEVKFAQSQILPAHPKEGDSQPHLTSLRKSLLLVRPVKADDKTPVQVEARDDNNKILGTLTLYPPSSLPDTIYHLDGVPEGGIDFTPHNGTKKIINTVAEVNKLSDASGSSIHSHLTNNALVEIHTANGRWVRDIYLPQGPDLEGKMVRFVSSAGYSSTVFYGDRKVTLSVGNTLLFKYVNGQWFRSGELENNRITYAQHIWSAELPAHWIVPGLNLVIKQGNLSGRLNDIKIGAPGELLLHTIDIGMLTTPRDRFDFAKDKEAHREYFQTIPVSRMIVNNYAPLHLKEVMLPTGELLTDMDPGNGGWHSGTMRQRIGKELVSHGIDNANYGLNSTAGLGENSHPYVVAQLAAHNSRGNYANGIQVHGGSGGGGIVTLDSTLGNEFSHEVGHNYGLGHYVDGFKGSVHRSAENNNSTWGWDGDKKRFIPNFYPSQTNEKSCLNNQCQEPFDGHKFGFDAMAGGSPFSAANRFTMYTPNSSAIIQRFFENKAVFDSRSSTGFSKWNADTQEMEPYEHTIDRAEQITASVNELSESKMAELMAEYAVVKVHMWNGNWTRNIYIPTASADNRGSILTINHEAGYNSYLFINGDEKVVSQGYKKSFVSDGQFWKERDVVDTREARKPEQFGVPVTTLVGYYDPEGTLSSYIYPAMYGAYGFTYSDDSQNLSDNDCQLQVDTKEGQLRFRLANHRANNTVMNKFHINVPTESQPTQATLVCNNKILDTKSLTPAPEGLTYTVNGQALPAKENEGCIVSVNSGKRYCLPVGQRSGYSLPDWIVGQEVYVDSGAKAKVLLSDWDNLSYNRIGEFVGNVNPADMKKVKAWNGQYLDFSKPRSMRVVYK
Briefly: pull-down with StcE conjugated to POROS AL beads, EDTA present, silver stain.

B1: C1 esterase inhibitor, human plasma-derived (other)
chain: NPNATSSSSQDPESLQDRGEGKVATTVISKMLFVEPILEVSSLPTTNSTTNSATKITANTTDEPTTQPTTEPTTQPTIQPTQPTTQLPTDSPTQPTTGSFCPGPVTLCSDLESHSTEAVLGDALVDFSLKLYHAFSAMKKVETNMAFSPFSIASLLTQVLLGAGENTKTNLESILSYPKDFTCVHQALKGFTTKGVTSVSQIFHSPDLAIRDTFVNASRTLYSSSPRVLSNNSDANLELINTWVAKNTNNKISRLLDSLPSDTRLVLLNAIYLSAKWKTTFDPKKTRMEPFHFKNSVIKVPMMNSKKYPVAHFIDQTLKAKVGQLQLSHNLSLVILVPQNLKHRLEDMEQALSPSVFKAIMEKLEMSKFQPTLLTLPRIKVTTSQDMLSIMEKLEFFDFSYDLNLCGLTEDPDLQVSAMQHQTVLELTETGVEAAAASAISVARTLLVFEVQQPFLFVLWDQQHKFPVFMGRVYDPRA
notes: Printed as C11NH throughout (OCR of C1INH); Native glycosylated protein; also called C11NH; C1-INH
As to B1, the binding result was “binds”.
